5 molecules from PMC12429042, “Contribution of Second-Shell Residues to PLP-Dependent Transaminase Catalysis: A Case Study of D-Amino Acid Transaminase from Desulfomonile tiedjei” (International Journal of Molecular Sciences, 2025) can be followed below.

For data set [1], the target named is T1, DestiTA (Desulfomonile tiedjei, UniProt I4C827, T199N).
T1 construct: gene Desti_3054; recombinant in E. coli Rosetta(DE3) pLysS, codon-optimized gene in modified pET-21d; N-terminal (His)6-TEV tag cut with TEV protease; homodimer about 68 kDa by gel filtration
In words: thermal shift assay (ThermoFluor) on apoenzyme, quadratic fit. It is filed as binding. The settings on record: 50 mM K-phosphate, pH 8.0; 2 µM apoenzyme incubated with 0.5–500 µM PLP 1 h at 25 °C; covalent (Schiff base to K158).

Data set [2] deals with T2, DestiTA (Desulfomonile tiedjei, UniProt I4C827, T199Q).
T2 construct: gene Desti_3054; recombinant in E. coli Rosetta(DE3) pLysS, codon-optimized gene in modified pET-21d; N-terminal (His)6-TEV tag cut with TEV protease; homodimer about 68 kDa by gel filtration
The data set is described as above. It is filed as binding. As to conditions: 50 mM K-phosphate, pH 8.0; 2 µM apoenzyme incubated with 0.5–500 µM PLP 1 h at 25 °C; covalent (Schiff base to K158).

The target of data set [3] is T3, DestiTA (Desulfomonile tiedjei, UniProt I4C827).
T3 construct: gene Desti_3054; recombinant in E. coli Rosetta(DE3) pLysS, codon-optimized gene in modified pET-21d; N-terminal (His)6-TEV tag cut with TEV protease; homodimer about 68 kDa by gel filtration
T3 sequence (I4C827 1-302): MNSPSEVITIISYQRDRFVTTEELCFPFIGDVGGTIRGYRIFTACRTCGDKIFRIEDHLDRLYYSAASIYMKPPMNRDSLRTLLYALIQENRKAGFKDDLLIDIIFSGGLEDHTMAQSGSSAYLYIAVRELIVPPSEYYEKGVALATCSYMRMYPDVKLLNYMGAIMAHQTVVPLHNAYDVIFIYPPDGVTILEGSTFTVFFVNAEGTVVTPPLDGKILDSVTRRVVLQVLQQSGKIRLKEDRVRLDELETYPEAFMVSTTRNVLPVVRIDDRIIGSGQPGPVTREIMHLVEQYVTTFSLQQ
The description is as above. It is filed as binding. The settings on record: 50 mM K-phosphate, pH 8.0; 2 µM apoenzyme incubated with 0.5–500 µM PLP 1 h at 25 °C; covalent (Schiff base to K158).

Substrate in data set [4]: C[C@@H](N)C(=O)O
In words: purified protein. As to conditions: co-substrate α-ketoglutarate, 50 mM K-phosphate, 30 µM PLP.

Substrate in data set [5]: O=C(O)CCC(=O)C(=O)O
In words: purified protein. The format is biochemical, Desulfomonile tiedjei. The settings on record: co-substrate D-alanine, 50 mM K-phosphate, 30 µM PLP.

Data set [6] concerns the molecule itself. Description: SEC; gel filtration of the purified enzyme; molecular weight approximately 68 kDa for the WT (subunit 34.2 kDa); self-association, homodimer.
Substrate in data set [7]: C[C@@H](N)c1ccccc1
In words: purified protein. It is filed as biochemical, Desulfomonile tiedjei. As to conditions: co-substrate α-ketoglutarate, 50 mM Na-pyrophosphate, pH 9.0, 50 °C, 30 µM PLP.

Regarding `Cc1ncc(COP(=O)(O)O)c(C=O)c1O` [PLP], the Kd turned out to be 33 ± 2 µM on DestiTA [1], 2.2 ± 0.4 µM at DestiTA [2] and 11 ± 1 µM on DestiTA [3].

B1: DestiTA T43E variant (enzyme, Desulfomonile tiedjei DSM 6799, UniProt I4C827 1-302, looked up)
chain: MNSPSEVITIISYQRDRFVTTEELCFPFIGDVGGTIRGYRIFEACRTCGDKIFRIEDHLDRLYYSAASIYMKPPMNRDSLRTLLYALIQENRKAGFKDDLLIDIIFSGGLEDHTMAQSGSSAYLYIAVRELIVPPSEYYEKGVALATCSYMRMYPDVKLLNYMGAIMAHQTVVPLHNAYDVIFIYPPDGVTILEGSTFTVFFVNAEGTVVTPPLDGKILDSVTRRVVLQVLQQSGKIRLKEDRVRLDELETYPEAFMVSTTRNVLPVVRIDDRIIGSGQPGPVTREIMHLVEQYVTTFSLQQ
notes: DestiTA of Desulfomonile tiedjei DSM 6799, gene Desti_3054, Uniprot ID I4C827_DESTA, with T43E; Made by single-primer site-directed mutagenesis; also called the T43E variant; source: E. coli, purified as described for the WT DestiTA; not shown: His6, N-terminal, cleaved
With B1, in the data set “purified protein [4]” (pH 6.5, 40 °C, pH 6.5, 40.0 °C), the Km is 2900 ± 800 µM, the kcat turned out to be 0.15 s⁻¹ and the kcat/Km came to 52 M⁻¹ s⁻¹. Besides, in the data set “purified protein [5]” (pH 6.5, 40 °C), the Km was 2800 ± 900 µM, the catalytic constant (kcat) is 0.15 ± 0.01 s⁻¹ and the catalytic efficiency (kcat/Km) is 54 ± 30 M⁻¹ s⁻¹. Also, the “stoichiometry N” value in data set [6] came to 2.

B2: DestiTA T199Q variant (enzyme, Desulfomonile tiedjei DSM 6799, UniProt I4C827 1-302, looked up)
chain: MNSPSEVITIISYQRDRFVTTEELCFPFIGDVGGTIRGYRIFTACRTCGDKIFRIEDHLDRLYYSAASIYMKPPMNRDSLRTLLYALIQENRKAGFKDDLLIDIIFSGGLEDHTMAQSGSSAYLYIAVRELIVPPSEYYEKGVALATCSYMRMYPDVKLLNYMGAIMAHQTVVPLHNAYDVIFIYPPDGVTILEGSTFQVFFVNAEGTVVTPPLDGKILDSVTRRVVLQVLQQSGKIRLKEDRVRLDELETYPEAFMVSTTRNVLPVVRIDDRIIGSGQPGPVTREIMHLVEQYVTTFSLQQ
notes: DestiTA of Desulfomonile tiedjei DSM 6799, gene Desti_3054, Uniprot ID I4C827_DESTA, with T199Q; Made by single-primer site-directed mutagenesis; also called the T199Q variant; source: E. coli, purified as described for the WT DestiTA; not shown: His6, N-terminal, cleaved
As to B2, in the data set “purified protein [4]” (pH 8.0, 50 °C, pH 8.0, 50.0 °C), the Km was found to be 50000 ± 6000 µM, the catalytic constant (kcat) was 8.4 s⁻¹ and the kcat/Km stood at 170 M⁻¹ s⁻¹. For the same molecule, in “purified protein [5]” (pH 8.0, 50 °C), the Michaelis-Menten constant (Km) is 450 ± 70 µM, the kcat was 8.4 ± 0.4 s⁻¹ and the catalytic efficiency (kcat/Km) turned out to be 19000 ± 4000 M⁻¹ s⁻¹. For the same molecule, in data set [6], the “stoichiometry N” value amounted to 2.

B3: D-amino acid transaminase from Desulfomonile tiedjei (DestiTA), wild type (enzyme, Desulfomonile tiedjei DSM 6799, UniProt I4C827 1-302, looked up)
chain: MNSPSEVITIISYQRDRFVTTEELCFPFIGDVGGTIRGYRIFTACRTCGDKIFRIEDHLDRLYYSAASIYMKPPMNRDSLRTLLYALIQENRKAGFKDDLLIDIIFSGGLEDHTMAQSGSSAYLYIAVRELIVPPSEYYEKGVALATCSYMRMYPDVKLLNYMGAIMAHQTVVPLHNAYDVIFIYPPDGVTILEGSTFTVFFVNAEGTVVTPPLDGKILDSVTRRVVLQVLQQSGKIRLKEDRVRLDELETYPEAFMVSTTRNVLPVVRIDDRIIGSGQPGPVTREIMHLVEQYVTTFSLQQ
notes: PLP-dependent fold type IV transaminase DestiTA of Desulfomonile tiedjei DSM 6799, gene Desti_3054, Uniprot ID I4C827_DESTA; recombinant DestiTA printed as 302 a.a., 34.2 kDa; codon-optimised synthetic gene in modified pET-21d; N-terminal (His)6-TEV-tag removed with TEV protease; also called WT DestiTA; WT; source: E. coli Rosetta(DE3) pLysS, purified (HisTrap HP, TEV cleavage, second HisTrap HP, …)
As for B3, the Michaelis-Menten constant (Km) came to 500 ± 100 µM in “purified protein [4]” (pH 8.0, 50 °C, pH 8.0, 50.0 °C); 17000 ± 2000 µM in the data set “purified protein [7]”; 110 ± 10 µM in “purified protein [5]” (pH 8.0, 50 °C). The catalytic constant (kcat) in the data set “purified protein [4]” (pH 8.0, 50 °C, pH 8.0, 50.0 °C) is 5.8 s⁻¹; in the data set “purified protein [7]” it was 0.7 ± 0.1 s⁻¹; in the data set “purified protein [5]” (pH 8.0, 50 °C), 5.8 ± 0.2 s⁻¹. The kcat/Km is 11600 ± 3000 M⁻¹ s⁻¹ in the data set “purified protein [4]” (pH 8.0, 50 °C, pH 8.0, 50.0 °C); 70 ± 20 M⁻¹ s⁻¹ in “purified protein [7]”; 53000 ± 8000 M⁻¹ s⁻¹ in “purified protein [5]” (pH 8.0, 50 °C). Also, the “stoichiometry N” value in data set [6] stood at 2.

B4: DestiTA T199N variant (enzyme, Desulfomonile tiedjei DSM 6799, UniProt I4C827 1-302, looked up)
chain: MNSPSEVITIISYQRDRFVTTEELCFPFIGDVGGTIRGYRIFTACRTCGDKIFRIEDHLDRLYYSAASIYMKPPMNRDSLRTLLYALIQENRKAGFKDDLLIDIIFSGGLEDHTMAQSGSSAYLYIAVRELIVPPSEYYEKGVALATCSYMRMYPDVKLLNYMGAIMAHQTVVPLHNAYDVIFIYPPDGVTILEGSTFNVFFVNAEGTVVTPPLDGKILDSVTRRVVLQVLQQSGKIRLKEDRVRLDELETYPEAFMVSTTRNVLPVVRIDDRIIGSGQPGPVTREIMHLVEQYVTTFSLQQ
notes: DestiTA of Desulfomonile tiedjei DSM 6799, gene Desti_3054, Uniprot ID I4C827_DESTA, with T199N; Made by single-primer site-directed mutagenesis; also called the T199N variant; source: E. coli, purified as described for the WT DestiTA; not shown: His6, N-terminal, cleaved
Consider B4, for which, in the data set “purified protein [4]” (pH 8.0, 50 °C, pH 8.0, 50.0 °C), the Michaelis-Menten constant (Km) was 520 ± 70 µM, the kcat came out at 5 s⁻¹ and the kcat/Km worked out at 10000 ± 2000 M⁻¹ s⁻¹. In addition, in the data set “purified protein [5]” (pH 8.0, 50 °C), the Michaelis-Menten constant (Km) amounted to 210 ± 30 µM, the kcat came to 5 ± 0.2 s⁻¹ and the kcat/Km was 24000 ± 4000 M⁻¹ s⁻¹. Also, the “stoichiometry N” value in data set [6] was 2.
